From paper PMC4259493
Where two headings read alike, the source gives them in different places.

Legend:
Assay in all cases: MST
[1] = target: α-actinin-2 wild-type, full length (human) (UniProt P35609)
[2] = target: α-actinin-2 wild-type, full length (human) (UniProt P35609); remark: listed apart in the source
[3] = target: α-actinin-2 calmodulin-like domain (CAMD, EF1-4) (human)
Sequence of α-actinin-2 calmodulin-like domain (CAMD, EF1-4) (human) (P35609 whole entry, the tested form may be a part): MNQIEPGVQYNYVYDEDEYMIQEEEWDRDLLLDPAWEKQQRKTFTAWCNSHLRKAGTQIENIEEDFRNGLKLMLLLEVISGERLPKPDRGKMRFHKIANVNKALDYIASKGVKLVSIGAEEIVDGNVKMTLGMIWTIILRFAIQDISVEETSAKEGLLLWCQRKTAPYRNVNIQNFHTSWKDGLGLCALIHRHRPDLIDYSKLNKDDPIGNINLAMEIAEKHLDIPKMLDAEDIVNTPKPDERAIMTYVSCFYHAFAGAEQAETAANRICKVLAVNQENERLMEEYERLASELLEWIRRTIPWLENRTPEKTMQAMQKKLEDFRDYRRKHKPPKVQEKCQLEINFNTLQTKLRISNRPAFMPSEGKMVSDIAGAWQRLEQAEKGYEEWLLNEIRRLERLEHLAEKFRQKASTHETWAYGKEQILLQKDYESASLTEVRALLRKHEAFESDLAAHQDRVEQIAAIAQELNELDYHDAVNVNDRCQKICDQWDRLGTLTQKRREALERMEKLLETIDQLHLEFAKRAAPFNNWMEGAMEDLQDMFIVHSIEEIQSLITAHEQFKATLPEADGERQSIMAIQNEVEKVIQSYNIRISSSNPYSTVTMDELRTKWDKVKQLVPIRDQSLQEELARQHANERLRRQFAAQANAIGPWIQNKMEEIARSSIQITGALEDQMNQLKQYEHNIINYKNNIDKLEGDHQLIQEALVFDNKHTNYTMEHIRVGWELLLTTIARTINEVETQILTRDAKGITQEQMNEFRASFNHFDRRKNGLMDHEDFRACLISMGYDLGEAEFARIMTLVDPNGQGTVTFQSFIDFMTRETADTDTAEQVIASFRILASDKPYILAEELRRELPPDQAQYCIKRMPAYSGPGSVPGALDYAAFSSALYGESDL

Sequence of α-actinin-2 wild-type, full length (human) (P35609 whole entry, the tested form may be a part): as above
Sequence of titin Zr-7 construct (amino acids Lys 692 - Arg 740) (Q8WZ42 692-740): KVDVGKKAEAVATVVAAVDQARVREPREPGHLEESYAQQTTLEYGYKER

## titin Zr-7 construct (amino acids Lys 692 - Arg 740) (from UniProt Q8WZ42 692-740) (domain or fragment)
[1]
  Kd: 380 nM
[2]
  Kd: 2900 nM
[3]
  Kd: 240 nM
